In paper PMC12243196, “Division of the large and multifunctional glycoside hydrolase family 2: high functional specificity and biochemical assays in the uncharacterized subfamilies” (Biotechnology for Biofuels and Bioproducts, 2025):
Like-named read-outs stand apart in the source and are kept apart here.

B1: (Zobellia galactanivorans) (protein)
chain: QTEKVDLPGEERMLLSGNWKFHAIYGEGSNYIDISETLEDIVIDNTDKDRVSVKGDWKTRSEGERGSGFLGTDYLQRDFKSGESDQNYVRYRPELPESGFYEAFVRFPFASHLTAEVNVNHAQGITAAYFNQRNRCDQWLSLGVFSFDKTLDSYVEVTAITASTVVADAVMFRPVSKEKMEEADIEKSSVFQVDFDDSNWKDLRVPGHWGMLNAYSNYTGKGWYRKTFELPKNWKSVSNERIRLKFDAVYHIARVFLNGELVGLHQGGFTPFEFDITDKLNYNGQNVLAVEADNNALVGATWNWGGIIREVHLIKNNDVRISYQYIHADPDLKKGSANLKLKVRIKNSSTRQRTVLLAAHIEEASSPVDLTYKVKVPANSTQEIQLATTLPATDVKLWHFDTPNLYHLTTTISENGQVLDTQKDRFGIRKIELTDSQLILNGEPVRLSGFNRVSDHRYWGSSEPQYLIDKDVDLMKNAGANFMRIMHGTQNKKLMDRCDEKGILIFEEVNVRELTNPEFTPPHYPLAKQWLKEMIERDVNHPSIIGWSVGNELKDHFDYAKETIDYVKKELDPYRLVTCVSNSGWRDSATPEKDPNTLVDIIMHNLYPFQGTPDKVFKTLRAKWPDKPIFISEYGIKPMATTSLDGDIPELSEWNDHLRGKNTYVIGASLWTFNDYRSGYAATSPEENRVWGLVNTWRQKRKLYHRIQKENSPLADLKIDGIDLKNGGAKVRITPKPVNGYPVYSLKGYTLEFTMYDKQGEILFSKTHSLPHIVPGGKPTEVAIDWQRYMTGMAQIHAAVISPNGYIRHQTSISLELPEKTSILAIEKGHGTVRVHYRPVFGADTYYVAYADGKGLERKSDTSTTHSIEIKDLDPEEEYAFSVIAQNSKGKSVPSGTRTTKANADVLPPMIWDAFLSDGKLVVGYSGAPDDVEYIVKYGLRDSYFPYKNSTRTKGMTVIDFEGDDPHFVSIKKKTKTGESDWSKPIHVYTIRNKERYRN
B2: (Saccharophagus degradans 2-40) (protein)
chain: MVVNTDITQWSLTKTNANGAQTPADIIPLQQWLAVPVPGTVAQAVGDAGPQEDLEQFDWWYTAQFPLPKTGKRTYLQCDGLATLSEVWVNDQQVLYSQSMFENHKLDITDYLQADNTLAIVFKALAPHLAERRARPQWKTNLVDNQNLRWFRTSLLGRMPGWTPPVKAIGPWRDISIVSVAKFDLVECTVFSEVDEALNGKVHINLELDFIDAKLAADPQIQFLLDGKIYPITAKPIKGGGAFIDTEIAIEQPQLWWPHTHGEPYLHAYKITAIIDGEVTTLTEGKLGFKRVTAANQTNQLALEVNNNKIFCRGACWATPNITSLNASKQEYRHLLKLLVDAGANMVRIGGTMVYEHDDFYALCDELGILVWQDFMFANMDYPFADEDFSKLVAKEVRQQITRLKQTASIAVFCGNSEMQQQAAMMGMEQTQWANALFDTFITQKLEEQQLTLPYFTSSPCEGGLPFHTDAGLTHYYGVGAYKLMPDHFTVREVGFTSECLGFSHIPVTASLKQAFESPYPATHTPSWKAGIPRDNSAGWDFEDIRNFYLEKIFGVVADTLRYSDPETYFKLATIATAEMVSSVYSIWRASISNCNGALAWFYQDIVAGAGWGIVDSFARPKAAYYFLKRVWQPQQVLLINNSLNGYTLEVQNETAHTLQAQLNIVLVGLSDNIVAEHTQEITLAANSVGTHKLDTVFGRFMDATHAYKFGRQTIYAVVAELRNESGELISQAVSFPGCRRINTGAGEITGSITSDSDNESVVTLTPSVFVEYACLESKTTQFSDNYTCMLPGKTYSFKACEQIKSVHVSTLNLQKEFRVT
B3: (Ruminiclostridium cellobioparum subsp. termitidis CT1112) (protein)
chain: MNNRKQICLNGLWDFCPGNGTLDRIPRKWDKTQIKVPSPWNINTFAGPEKLTCGEEEIFLRGGEFNLYPEYPKAWENAQSGWYKTEMFIDEEWRGKVITLKFNAVLFYSEFYINGKLISTDADGFLPHEFPVQDHVKYGGSNTLVVGVKKLDAFRYKNEAGKNRIEYPTGSFWGKTMGGIWQDVYLNVYPHDHITDIFVRTDVNSNILRVDADLAADRGEDFTVGMVLREWSGDRSFKLACGLPVNGNSVEFIFDYSGIKDEIRQWWPDSPELYYIDVILHSGNEIVDVKTARFGFKSFEVRGKQFYLNGTPINLRNDSWHYMGFAYQNEEYARLWYKMARDANVNCIRLHAQVYPEFFLDMADEMGMMIVDETSIWASHCEFHYSMEFVENGKKHIKRMIERDRNHPSIIIWSVENECIMAYRVSADDGVKDENELNERLFLLAEYAGSLDPTRPVSGDGSQDMGGRLDVYSLHYPGKKGPENVNKPVTIGEMGSLYYATPDCVCNQYGEKTYLSFDGRLEAIGRELFENLKHERKWAAQVCVFNLVWYGLKPLPFKERIINYPDLSLPGVKPTRTGPYISTLNAAYDDSLPEYIPNTVFEWVRQAYLPERFFFEEGRSRYYNGEAGAKKISVFNDSFEEKEYILEWQMEQKGEILGSGNKSVLVNPAGYEELDIEFDLPAADSIERLSLRILMKFRDNIVFEDVCSIKVYNKNHIFSFMGGFGKVGILGGSRLDANEFFEKSGIETVDGLTQGIDIYLLEECTEEAAAGLTWACCSVLDLLPEKHGFKSWLSHGSAENAFLNVDDRTLMENLEEEDLSNWGNGYLCNNTFQDNLCVSAFNLFCTGKGIPLILDVKNGKARQLVSTIPLLKWAAEEPAALVLLSNLIAYAAQTGKTEAHECVLVSKKDSDMHRSFENMGIDFTLAEVKNRDQIRSLREVKLLVADGSCRLDYLDEIMPYNAEQILLCNFDEATLPDSLKGYIEVVEKPLYQLIKAGKDNALTDGIHAGDLYGLEAGQETVICKRPFLIKDDRKVKGLLKNADLNWRMWNFQGEDRKTVSILRSEQETKTPLYGLAETHINTVKVILGQIDMSYANRKLERLASRFFLQYGTYSKL

Assays:
[1] = test system: T1, BfGH2_9
T1 construct: gene BF638R_1918
T1 sequence (E1WVB9 30-864 limits assumed): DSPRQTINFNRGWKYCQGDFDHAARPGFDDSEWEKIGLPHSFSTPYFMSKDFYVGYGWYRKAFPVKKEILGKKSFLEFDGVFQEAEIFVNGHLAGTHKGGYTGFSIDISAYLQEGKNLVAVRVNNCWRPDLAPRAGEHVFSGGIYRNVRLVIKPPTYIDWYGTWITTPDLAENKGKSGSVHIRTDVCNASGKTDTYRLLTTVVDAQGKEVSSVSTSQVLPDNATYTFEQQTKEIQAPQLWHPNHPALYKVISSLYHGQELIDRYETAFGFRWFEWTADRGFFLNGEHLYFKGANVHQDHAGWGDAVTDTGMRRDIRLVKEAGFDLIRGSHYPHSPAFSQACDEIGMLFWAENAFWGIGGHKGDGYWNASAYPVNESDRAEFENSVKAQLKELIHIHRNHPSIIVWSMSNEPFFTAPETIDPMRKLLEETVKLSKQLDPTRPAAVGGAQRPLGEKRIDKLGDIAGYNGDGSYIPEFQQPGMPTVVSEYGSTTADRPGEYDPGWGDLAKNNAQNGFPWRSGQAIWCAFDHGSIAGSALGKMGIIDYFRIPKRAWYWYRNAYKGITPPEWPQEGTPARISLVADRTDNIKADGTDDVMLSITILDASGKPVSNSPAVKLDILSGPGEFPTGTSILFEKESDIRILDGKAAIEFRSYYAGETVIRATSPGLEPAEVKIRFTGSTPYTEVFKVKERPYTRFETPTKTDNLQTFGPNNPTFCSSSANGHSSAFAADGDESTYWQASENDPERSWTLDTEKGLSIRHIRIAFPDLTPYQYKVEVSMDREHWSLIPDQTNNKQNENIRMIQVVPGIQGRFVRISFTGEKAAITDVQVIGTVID

[2] = molecular target: T2, AmGH2_9 (Akkermansia muciniphila, UniProt B2UM41); experiment: activity screening, absorbance at […] nm; type: biochemical
T2 construct: gene Amuc_1667
T2 sequence (B2UM41 entry or part of it): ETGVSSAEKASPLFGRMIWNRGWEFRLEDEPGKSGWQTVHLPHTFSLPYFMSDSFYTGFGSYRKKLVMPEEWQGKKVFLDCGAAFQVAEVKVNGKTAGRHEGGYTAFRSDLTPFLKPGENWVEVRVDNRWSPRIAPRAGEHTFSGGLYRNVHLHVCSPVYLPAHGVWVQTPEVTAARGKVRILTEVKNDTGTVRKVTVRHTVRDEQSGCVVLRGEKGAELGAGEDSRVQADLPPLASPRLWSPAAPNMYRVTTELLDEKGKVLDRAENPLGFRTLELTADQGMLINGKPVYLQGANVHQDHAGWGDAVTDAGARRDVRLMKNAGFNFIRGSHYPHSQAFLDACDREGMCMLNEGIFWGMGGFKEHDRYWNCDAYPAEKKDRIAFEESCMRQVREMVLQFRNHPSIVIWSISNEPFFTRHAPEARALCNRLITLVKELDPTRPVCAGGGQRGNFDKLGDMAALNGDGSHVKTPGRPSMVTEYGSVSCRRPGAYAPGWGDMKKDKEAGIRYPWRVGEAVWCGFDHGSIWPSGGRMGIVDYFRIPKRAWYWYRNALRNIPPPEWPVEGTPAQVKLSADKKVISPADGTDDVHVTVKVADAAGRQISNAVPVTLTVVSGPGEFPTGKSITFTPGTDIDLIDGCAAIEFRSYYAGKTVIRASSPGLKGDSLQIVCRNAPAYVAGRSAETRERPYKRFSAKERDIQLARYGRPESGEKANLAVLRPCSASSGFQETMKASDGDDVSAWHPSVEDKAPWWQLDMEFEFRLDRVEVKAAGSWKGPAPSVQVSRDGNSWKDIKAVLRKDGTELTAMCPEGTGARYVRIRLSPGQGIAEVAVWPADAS

[3] = substrate: O=[N+]([O-])c1ccc(O[C@@H]2O[C@H](CO)[C@H](O)[C@H](O)[C@H]2O)cc1; experiment: purified protein

Molecule | Km ([3]; 40.0 °C) | kcat ([3]; 40.0 °C) | kcat/Km ([3]; 40.0 °C) | also measured
O=[N+]([O-])c1ccccc1O[C@@H]1O[C@H](CO)[C@H](O)[C@H](O)[C@H]1O [oNP-β-D-Galp] |  |  |  | activity screening, absorbance at 405 nm [1]: All the enzymes also displayed activity on oNP-β-D-Galp (data not shown); activity screening, absorbance at 405 nm [2]: All the enzymes also displayed activity on oNP-β-D-Galp (data not shown)
B1 |  |  |  | Km [3]: 67 ± 8.3 µM; kcat [3]: 0.0133 s⁻¹; kcat/Km [3]: 204 M⁻¹ s⁻¹
B2 | 64 ± 12.6 µM | 0.02 s⁻¹ | 306 M⁻¹ s⁻¹ | 
B3 | 40 ± 1.2 µM | 0.0233 s⁻¹ | 586 M⁻¹ s⁻¹ | 
